Measured values from publication PMC3992927 (Cancer discovery, 2014).
Where a chain is given by its changes, count along the chain named.

Assays:
[1] = target: T1, myc epitope-tagged RNF31 Q584H (human, UniProt Q96EP0-1 1-1072, Q584H); assay: co-IP
T1 sequence (looked up): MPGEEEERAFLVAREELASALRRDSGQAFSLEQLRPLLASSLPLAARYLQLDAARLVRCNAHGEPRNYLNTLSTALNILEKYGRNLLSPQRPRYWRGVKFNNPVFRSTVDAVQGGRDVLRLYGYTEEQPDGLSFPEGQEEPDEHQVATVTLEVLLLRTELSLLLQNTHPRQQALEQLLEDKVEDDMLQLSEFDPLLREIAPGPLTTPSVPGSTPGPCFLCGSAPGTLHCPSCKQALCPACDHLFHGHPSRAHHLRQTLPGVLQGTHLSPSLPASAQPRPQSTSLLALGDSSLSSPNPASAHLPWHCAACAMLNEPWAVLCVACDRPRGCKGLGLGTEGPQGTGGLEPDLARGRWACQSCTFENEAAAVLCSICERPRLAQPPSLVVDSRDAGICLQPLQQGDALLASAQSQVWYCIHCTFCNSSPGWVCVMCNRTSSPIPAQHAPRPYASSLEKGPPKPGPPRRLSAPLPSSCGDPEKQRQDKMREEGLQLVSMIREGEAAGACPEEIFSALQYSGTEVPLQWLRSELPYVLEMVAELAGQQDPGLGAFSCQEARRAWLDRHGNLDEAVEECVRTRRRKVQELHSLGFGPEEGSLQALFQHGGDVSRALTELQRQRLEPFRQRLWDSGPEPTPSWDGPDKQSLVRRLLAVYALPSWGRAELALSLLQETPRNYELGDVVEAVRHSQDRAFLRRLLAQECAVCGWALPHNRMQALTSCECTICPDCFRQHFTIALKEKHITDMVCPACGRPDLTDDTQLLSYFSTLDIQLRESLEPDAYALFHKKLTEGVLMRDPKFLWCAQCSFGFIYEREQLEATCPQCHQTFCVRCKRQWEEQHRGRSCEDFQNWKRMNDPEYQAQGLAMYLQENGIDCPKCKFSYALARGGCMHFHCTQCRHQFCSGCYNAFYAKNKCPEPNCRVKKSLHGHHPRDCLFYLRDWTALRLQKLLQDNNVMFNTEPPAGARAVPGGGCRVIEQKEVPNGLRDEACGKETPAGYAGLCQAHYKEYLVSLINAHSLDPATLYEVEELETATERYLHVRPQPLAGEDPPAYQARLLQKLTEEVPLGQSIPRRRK

[2] = target: T2, myc epitope-tagged RNF31 Q622L (human, UniProt Q96EP0-1 1-1072, Q622L); assay: co-IP
T2 sequence (looked up): T1 sequence (looked up) with H584Q, Q622L

B1: RBCK1 (natural protein, human (endogenous in HBL1), UniProt Q9BYM8-1 1-510, looked up)
chain: MDEKTKKAEEMALSLTRAVAGGDEQVAMKCAIWLAEQRVPLSVQLKPEVSPTQDIRLWVSVEDAQMHTVTIWLTVRPDMTVASLKDMVFLDYGFPPVLQQWVIGQRLARDQETLHSHGVRQNGDSAYLYLLSARNTSLNPQELQRERQLRMLEDLGFKDLTLQPRGPLEPGPPKPGVPQEPGRGQPDAVPEPPPVGWQCPGCTFINKPTRPGCEMCCRARPEAYQVPASYQPDEEERARLAGEEEALRQYQQRKQQQQEGNYLQHVQLDQRSLVLNTEPAECPVCYSVLAPGEAVVLRECLHTFCRECLQGTIRNSQEAEVSCPFIDNTYSCSGKLLEREIKALLTPEDYQRFLDLGISIAENRSAFSYHCKTPDCKGWCFFEDDVNEFTCPVCFHVNCLLCKAIHEQMNCKEYQEDLALRAQNDVAARQTTEMLKVMLQQGEAMRCPQCQIVVQKKDGCDWIRCTVCHTEICWVTKGPRWGPGGPGDTSGGCRCRVNGIPCHPSCQNCH
- fold co-immunoprecipitation relative to wild type RNF31 [1]: 1.4 fold
- fold co-immunoprecipitation relative to wild type RNF31 [2]: 2.07 fold
